According to patent US20150322165A1 (SAMSUNG ELECTRONICS, published 2015):
Blank lines part the entries; values can stand above or below the binder they belong to.

Columns and labels:
[1] = molecular target: T1, human c-Met/Fc fusion protein (R&D Systems) (human, UniProt P08581 25-932); experiment: ELISA, hybridoma culture on plate-bound human c-Met/Fc fusion protein
T1 construct: Bought reagent, coated on ELISA plates; also called human c-Met/Fc protein; not shown: Fc part of the bought fusion; not described
T1 sequence (P08581 25-932 limits assumed): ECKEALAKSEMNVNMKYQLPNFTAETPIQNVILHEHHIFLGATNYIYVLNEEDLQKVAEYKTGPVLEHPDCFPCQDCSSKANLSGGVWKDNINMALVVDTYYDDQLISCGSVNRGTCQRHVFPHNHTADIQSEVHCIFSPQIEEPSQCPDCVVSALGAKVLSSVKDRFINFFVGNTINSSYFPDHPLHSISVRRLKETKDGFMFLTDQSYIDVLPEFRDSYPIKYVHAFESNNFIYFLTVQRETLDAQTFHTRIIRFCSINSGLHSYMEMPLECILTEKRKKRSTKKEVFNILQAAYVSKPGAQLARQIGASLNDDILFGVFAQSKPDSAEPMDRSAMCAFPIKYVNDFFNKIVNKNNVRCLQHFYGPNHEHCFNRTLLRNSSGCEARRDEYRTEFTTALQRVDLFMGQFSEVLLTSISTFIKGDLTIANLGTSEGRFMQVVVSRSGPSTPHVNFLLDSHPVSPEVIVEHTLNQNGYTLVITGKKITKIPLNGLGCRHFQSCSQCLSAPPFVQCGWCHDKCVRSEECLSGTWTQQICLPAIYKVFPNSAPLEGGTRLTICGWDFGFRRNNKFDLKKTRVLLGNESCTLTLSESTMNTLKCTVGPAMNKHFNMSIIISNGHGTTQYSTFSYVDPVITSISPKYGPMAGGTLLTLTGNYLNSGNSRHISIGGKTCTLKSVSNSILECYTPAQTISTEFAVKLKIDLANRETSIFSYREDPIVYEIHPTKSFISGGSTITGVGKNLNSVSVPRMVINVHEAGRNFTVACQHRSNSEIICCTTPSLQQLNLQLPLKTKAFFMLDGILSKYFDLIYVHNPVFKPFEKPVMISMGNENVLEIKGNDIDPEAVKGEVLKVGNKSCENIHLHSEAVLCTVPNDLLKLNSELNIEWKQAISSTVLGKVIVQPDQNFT
Procedure: The hybridoma cell culture obtained in Reference Example 1.1.2 was added in an amount of 50 μL to each well of the plates and incubated for 1 hour. The cells remaining unreacted were washed out with a sufficient amount of Tris-buffered saline and Tween 20 (TBST). Goat anti-mouse IgG-horseradish peroxidase (HRP) was added to the plates and incubated for 1 hour at room temperature. The plates were washed with a sufficient amount of TBST, followed by reacting the peroxidase with a substrate (OPD). Absorbance at 450 nm was measured on an ELISA reader.

[2] = molecular target: T2, HER3-Fc (#344-ER, R&D Systems) (UniProt P21860 20-643); experiment: SPR (Biacore T100), MEH3-01S captured by human Fab binder on CM5 chip, HER3-Fc injected
T2 construct: Bought reagent; not shown: Fc part of the bought fusion; not described
T2 sequence (P21860 20-643 limits assumed): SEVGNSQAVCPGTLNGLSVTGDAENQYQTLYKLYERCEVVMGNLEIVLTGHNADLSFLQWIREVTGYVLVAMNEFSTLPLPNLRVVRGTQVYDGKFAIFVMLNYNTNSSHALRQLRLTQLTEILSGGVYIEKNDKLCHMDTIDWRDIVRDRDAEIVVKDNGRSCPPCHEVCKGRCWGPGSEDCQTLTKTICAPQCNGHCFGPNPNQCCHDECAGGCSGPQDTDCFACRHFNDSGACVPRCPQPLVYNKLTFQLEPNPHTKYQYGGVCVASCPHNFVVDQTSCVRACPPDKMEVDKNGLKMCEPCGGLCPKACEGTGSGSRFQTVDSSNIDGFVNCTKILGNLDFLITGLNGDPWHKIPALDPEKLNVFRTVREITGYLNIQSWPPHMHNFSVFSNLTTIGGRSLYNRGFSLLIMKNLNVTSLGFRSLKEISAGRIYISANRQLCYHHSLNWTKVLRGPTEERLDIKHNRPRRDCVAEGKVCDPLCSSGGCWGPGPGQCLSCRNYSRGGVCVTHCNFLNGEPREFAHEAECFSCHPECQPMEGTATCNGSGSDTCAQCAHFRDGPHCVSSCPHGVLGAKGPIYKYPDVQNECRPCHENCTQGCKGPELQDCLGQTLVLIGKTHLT
Procedure: (§1) The affinity of the anti-c-Met/anti-EGFR/anti-HER3 multispecific antibody prepared in Example 2 to EGFR and HER3 was measured. A human Fab binder (GE Healthcare) was immobilized at the surface of a CM5 chip (#BR-1005-30, GE) according to the manufacturer's specifications. About 90 to 120 RU of the MEH3-01S was captured, and the EGFR-Fc(#344-ER, R&D Systems) or HER3-Fc(#344-ER, R&D Systems) was injected at various concentrations into the captured antibody. 10 mM Glycine-HCl (pH 1.5) solution was injected thereto to regenerate the surface.
(§2) To examine affinity of the antibody, the data obtained from this experiment was fitted using BIAevaluation software (GE Healthcare, Biacore T100 evaluation software).

[3] = molecular target: T3, EGFR-Fc (#344-ER, R&D Systems) (UniProt P00533 25-645); experiment: SPR (Biacore T100), MEH3-01S captured by human Fab binder on CM5 chip, EGFR-Fc injected
T3 construct: Bought reagent; not shown: Fc part of the bought fusion; not described
Procedure: as §1, §2

binding result [1]: binds
B1: AbF46, a mouse antibody to c-Met (antibody, V domains shown)
VH: EVKLVESGGGLVQPGGSLRLSCATSGFTFTDYYMSWVRQPPGKALEWLGFIRNKANGYTTEYSASVKGRFTISRDNSQSILYLQMDTLRAEDSATYYCARDNWFAYWGQGTLVTVSA
VL: DILMTQSPSSLTVSAGEKVTMSCKSSQSLLASGNQNNYLAWHQQKPGRSPKMLIIWASTRVSGVPDRFIGSGSGTDFTLTINSVQAEDLAVYYCQQSYSAPLTFGAGTKLELK
notes: Tested as hybridoma culture supernatant in the selection ELISA; also called monoclonal antibody of hybridoma KCLRF-BP-00220

Kd [2]: < 10 pM
koff [2]: < 1.6e-05 s⁻¹
kon [2]: 3.4e+06 M⁻¹ s⁻¹
Kd [3]: 180 pM
koff [3]: 0.00011 s⁻¹
kon [3]: 1e+06 M⁻¹ s⁻¹
B2: anti-c-Met/anti-EGFR/anti-HER3 multispecific antibody MEH3-01S (bispecific antibody, human IgG2, kappa)
heavy: EVQLVESGGGLVQPGGSLRLSCAASGFTFTDYYMSWVRQAPGKGLEWLGFIRNKANGYTTEYSASVKGRFTISRDNSKNTLYLQMNSLRAEDTAVYYCARDNWFAYWGQGTLVTVSSASTKGPSVFPLAPCSRSTSESTAALGCLVKDYFPEPVTVSWNSGALTSGVHTFPAVLQSSGLYSLSSVVTVPSSNFGTQTYTCNVDHKPSNTKVDKTVERKCCVECPPCPAPPVAGPSVFLFPPKPKDTLMISRTPEVTCVVVDVSHEDPEVQFNWYVDGVEVHNAKTKPREEQFNSTFRVVSVLTVVHQDWLNGKEYKCKVSNKGLPAPIEKTISKTKGQPREPQVYTLPPSREEMTKNQVSLTCLVKGFYPSDIAVEWESNGQPENNYKTTPPMLDSDGSFFLYSKLTVDKSRWQQGNVFSCSVMHEALHNHYTQKSLSLSPGKGGGGSGGGGSGGGGSEVQLVESGGGLVQPGGSLRLSCAASGFTLSGDWIHWVRQAPGKCLEWVGEISAAGGYTDYADSVKGRFTISADTSKNTAYLQMNSLRAEDTAVYYCARESRVSFEAAMDYWGQGTLVTVSSGGGGSGGGGSGGGGSDIQMTQSPSSLSASVGDRVTITCRASQNIATDVAWYQQKPGKAPKLLIYSASFLYSGVPSRFSGSGSGTDFTLTISSLQPEDFATYYCQQSEPEPYTFGCGTKVEIK
light: DIQMTQSPSSLSASVGDRVTITCKSSQSLLASGNQNNYLAWYQQKPGKAPKMLIIWASTRVSGVPSRFSGSGSGTDFTLTISSLQPEDFATYYCQQSYSRPYTFGQGTKVEIKRTVAAPSVFIFPPSDEQLKSGTASVVCLLNNFYPREAKVQWKVDNALQSGNSQESVTEQDSKDSTYSLSSTLTLSKADYEKHKVYACEVTHQGLSSPVTKSFNRGEC
notes: DL11f scFv fused to the C-terminus of the heavy chain (Fc) of the anti-c-Met IgG2 antibody SAIT301
